Experimental data from patent publication US20210269521A1 (L AND L BIOPHARMA, published 2021).

B1: bispecific antibody LB1414 (bispecific antibody, human IgG4 S228P, kappa)
light: EIVLTQSPATLSLSPGERATLSCRASKGVSTSGYSYLHWYQQKPGQAPRLLIYLASYLESGVPARFSGSGSGTDFTLTISSLEPEDFAVYYCQHSRDLPLTFGGGTKVEIKRTVAAPSVFIFPPSDEQLKSGTASVVCLLNNFYPREAKVQWKVDNALQSGNSQESVTEQDSKDSTYSLSSTLTLSKADYEKHKVYACEVTHQGLSSPVTKSFNRGECGGGGSGGGGSGGGGSEVQLVESGGGLVKPGGSLRLSCAASGFTFSDYYMAWVRQAPGKGLEWVANINYDGSNTYYLDSLKSRFTISRDNAKNSLYLQMNSLRAEDTAVYYCARGLYYYGGNYFAYWGQGTLVTVSSGGGGSGGGGSGGGGSDIQMTQSPSSLSASVGDRVTITCHASQGISSNIGWLQQKPGKAFKGLIYQGSNLEDGVPSRFSGSGSGADYTLTISSLQPEDFATYYCVQFAQFPPTFGQGTKLEIK
heavy: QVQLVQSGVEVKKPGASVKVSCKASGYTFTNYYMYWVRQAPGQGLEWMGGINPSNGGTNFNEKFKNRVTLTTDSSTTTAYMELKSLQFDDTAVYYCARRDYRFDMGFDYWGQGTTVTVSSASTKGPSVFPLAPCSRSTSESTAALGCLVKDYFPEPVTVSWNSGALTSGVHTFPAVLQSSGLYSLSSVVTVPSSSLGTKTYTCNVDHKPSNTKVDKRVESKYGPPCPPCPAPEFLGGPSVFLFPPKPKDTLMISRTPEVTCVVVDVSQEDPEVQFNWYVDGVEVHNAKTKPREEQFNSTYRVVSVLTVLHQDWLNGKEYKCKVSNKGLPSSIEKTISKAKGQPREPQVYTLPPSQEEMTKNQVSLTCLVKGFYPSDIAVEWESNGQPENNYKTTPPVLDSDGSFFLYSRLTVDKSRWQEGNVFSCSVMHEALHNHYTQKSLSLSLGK
B2: bispecific antibody LB245 (bispecific antibody, human IgG4 S228P, kappa)
light: B1 light
heavy: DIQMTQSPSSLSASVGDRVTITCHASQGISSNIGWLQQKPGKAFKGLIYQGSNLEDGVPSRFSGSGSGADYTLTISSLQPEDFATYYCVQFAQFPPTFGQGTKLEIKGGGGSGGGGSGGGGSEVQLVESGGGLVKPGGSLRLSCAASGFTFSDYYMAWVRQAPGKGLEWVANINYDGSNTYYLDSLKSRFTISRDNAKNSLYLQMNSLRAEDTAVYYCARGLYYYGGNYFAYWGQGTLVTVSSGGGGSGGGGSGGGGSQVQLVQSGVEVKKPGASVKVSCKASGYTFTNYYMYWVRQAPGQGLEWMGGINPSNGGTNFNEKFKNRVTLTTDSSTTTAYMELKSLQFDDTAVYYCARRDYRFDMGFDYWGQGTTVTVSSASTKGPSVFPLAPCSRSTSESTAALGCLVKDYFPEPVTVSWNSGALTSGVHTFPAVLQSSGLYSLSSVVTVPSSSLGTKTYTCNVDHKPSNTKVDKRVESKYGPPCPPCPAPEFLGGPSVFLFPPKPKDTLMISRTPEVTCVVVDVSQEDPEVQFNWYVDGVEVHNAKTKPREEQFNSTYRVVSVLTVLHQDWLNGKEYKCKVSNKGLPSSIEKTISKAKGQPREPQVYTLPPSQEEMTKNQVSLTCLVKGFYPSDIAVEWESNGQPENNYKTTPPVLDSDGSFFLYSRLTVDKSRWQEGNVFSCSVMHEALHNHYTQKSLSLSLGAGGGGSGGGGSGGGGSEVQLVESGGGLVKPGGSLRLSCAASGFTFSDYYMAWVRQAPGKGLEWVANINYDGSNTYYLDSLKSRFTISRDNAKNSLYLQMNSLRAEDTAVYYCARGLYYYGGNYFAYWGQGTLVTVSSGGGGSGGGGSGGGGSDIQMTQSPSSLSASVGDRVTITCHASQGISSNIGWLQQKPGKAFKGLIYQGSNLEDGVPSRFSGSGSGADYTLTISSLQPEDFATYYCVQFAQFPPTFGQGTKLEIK
B3: bispecific antibody LB242 (bispecific antibody, human IgG4 S228P, kappa)
light: B1 light
heavy: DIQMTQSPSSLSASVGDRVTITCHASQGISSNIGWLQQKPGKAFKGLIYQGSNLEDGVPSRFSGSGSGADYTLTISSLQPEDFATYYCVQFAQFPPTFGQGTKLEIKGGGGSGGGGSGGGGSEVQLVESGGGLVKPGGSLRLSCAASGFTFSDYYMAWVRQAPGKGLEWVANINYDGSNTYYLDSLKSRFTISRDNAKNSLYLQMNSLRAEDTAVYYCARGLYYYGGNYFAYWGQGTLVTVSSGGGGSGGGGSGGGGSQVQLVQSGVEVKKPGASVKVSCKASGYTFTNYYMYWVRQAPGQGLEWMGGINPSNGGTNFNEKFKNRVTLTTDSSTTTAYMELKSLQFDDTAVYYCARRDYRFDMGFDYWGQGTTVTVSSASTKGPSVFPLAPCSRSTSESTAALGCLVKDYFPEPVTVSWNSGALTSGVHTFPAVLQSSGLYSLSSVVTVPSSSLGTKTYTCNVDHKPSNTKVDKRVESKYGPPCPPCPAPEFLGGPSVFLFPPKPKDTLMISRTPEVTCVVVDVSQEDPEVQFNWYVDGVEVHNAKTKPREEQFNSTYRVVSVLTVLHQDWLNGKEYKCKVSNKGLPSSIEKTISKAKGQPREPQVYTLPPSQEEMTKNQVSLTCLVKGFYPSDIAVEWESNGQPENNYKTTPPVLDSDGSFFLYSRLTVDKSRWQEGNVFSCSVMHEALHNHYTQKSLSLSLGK
B4: bispecific antibody LB1413 (bispecific antibody, human IgG4 S228P, kappa)
light: DIQMTQSPSSLSASVGDRVTITCHASQGISSNIGWLQQKPGKAFKGLIYQGSNLEDGVPSRFSGSGSGADYTLTISSLQPEDFATYYCVQFAQFPPTFGQGTKLEIKGGGGSGGGGSGGGGSEVQLVESGGGLVKPGGSLRLSCAASGFTFSDYYMAWVRQAPGKGLEWVANINYDGSNTYYLDSLKSRFTISRDNAKNSLYLQMNSLRAEDTAVYYCARGLYYYGGNYFAYWGQGTLVTVSSGGGGSGGGGSGGGGSEIVLTQSPATLSLSPGERATLSCRASKGVSTSGYSYLHWYQQKPGQAPRLLIYLASYLESGVPARFSGSGSGTDFTLTISSLEPEDFAVYYCQHSRDLPLTFGGGTKVEIKRTVAAPSVFIFPPSDEQLKSGTASVVCLLNNFYPREAKVQWKVDNALQSGNSQESVTEQDSKDSTYSLSSTLTLSKADYEKHKVYACEVTHQGLSSPVTKSFNRGEC
heavy: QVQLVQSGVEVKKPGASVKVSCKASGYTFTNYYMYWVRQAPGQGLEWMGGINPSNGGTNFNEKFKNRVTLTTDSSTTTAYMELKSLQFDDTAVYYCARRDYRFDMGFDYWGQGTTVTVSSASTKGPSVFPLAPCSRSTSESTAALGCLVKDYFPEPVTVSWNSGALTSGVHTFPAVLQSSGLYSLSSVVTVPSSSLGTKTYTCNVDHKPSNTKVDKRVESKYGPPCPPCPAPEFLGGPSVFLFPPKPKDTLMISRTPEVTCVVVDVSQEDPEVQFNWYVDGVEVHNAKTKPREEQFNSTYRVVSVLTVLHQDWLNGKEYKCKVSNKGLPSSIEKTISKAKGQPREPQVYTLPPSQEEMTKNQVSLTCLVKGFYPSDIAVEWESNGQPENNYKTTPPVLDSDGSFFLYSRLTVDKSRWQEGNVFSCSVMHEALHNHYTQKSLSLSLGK
notes: ab6VL-(G4S)3-ab6VH-(G4S)3-PemVL-κ with PemVH-hIgG4
B5: bispecific antibody LB241 (bispecific antibody, human IgG4 S228P, kappa)
light: B4 light
heavy: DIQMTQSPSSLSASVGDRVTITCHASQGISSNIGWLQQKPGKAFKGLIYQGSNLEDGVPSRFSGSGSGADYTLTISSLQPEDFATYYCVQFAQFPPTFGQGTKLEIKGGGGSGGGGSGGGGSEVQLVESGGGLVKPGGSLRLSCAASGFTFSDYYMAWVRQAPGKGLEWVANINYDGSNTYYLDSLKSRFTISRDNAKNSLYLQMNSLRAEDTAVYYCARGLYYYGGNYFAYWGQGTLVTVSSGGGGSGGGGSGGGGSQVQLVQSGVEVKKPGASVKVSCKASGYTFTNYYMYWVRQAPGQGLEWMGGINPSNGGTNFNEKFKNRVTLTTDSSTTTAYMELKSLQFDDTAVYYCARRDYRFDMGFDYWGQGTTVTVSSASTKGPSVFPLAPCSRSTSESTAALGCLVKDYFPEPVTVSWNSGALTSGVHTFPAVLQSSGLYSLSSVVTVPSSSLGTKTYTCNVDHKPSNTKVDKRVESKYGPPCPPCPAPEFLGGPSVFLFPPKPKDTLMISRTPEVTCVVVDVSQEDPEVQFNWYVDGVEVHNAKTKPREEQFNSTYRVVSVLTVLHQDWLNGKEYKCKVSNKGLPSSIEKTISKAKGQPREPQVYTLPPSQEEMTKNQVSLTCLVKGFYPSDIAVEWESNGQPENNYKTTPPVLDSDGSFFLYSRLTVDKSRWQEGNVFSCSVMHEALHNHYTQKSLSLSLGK
B6: bispecific antibody LB244 (bispecific antibody, human IgG4 S228P, kappa)
light: B4 light
heavy: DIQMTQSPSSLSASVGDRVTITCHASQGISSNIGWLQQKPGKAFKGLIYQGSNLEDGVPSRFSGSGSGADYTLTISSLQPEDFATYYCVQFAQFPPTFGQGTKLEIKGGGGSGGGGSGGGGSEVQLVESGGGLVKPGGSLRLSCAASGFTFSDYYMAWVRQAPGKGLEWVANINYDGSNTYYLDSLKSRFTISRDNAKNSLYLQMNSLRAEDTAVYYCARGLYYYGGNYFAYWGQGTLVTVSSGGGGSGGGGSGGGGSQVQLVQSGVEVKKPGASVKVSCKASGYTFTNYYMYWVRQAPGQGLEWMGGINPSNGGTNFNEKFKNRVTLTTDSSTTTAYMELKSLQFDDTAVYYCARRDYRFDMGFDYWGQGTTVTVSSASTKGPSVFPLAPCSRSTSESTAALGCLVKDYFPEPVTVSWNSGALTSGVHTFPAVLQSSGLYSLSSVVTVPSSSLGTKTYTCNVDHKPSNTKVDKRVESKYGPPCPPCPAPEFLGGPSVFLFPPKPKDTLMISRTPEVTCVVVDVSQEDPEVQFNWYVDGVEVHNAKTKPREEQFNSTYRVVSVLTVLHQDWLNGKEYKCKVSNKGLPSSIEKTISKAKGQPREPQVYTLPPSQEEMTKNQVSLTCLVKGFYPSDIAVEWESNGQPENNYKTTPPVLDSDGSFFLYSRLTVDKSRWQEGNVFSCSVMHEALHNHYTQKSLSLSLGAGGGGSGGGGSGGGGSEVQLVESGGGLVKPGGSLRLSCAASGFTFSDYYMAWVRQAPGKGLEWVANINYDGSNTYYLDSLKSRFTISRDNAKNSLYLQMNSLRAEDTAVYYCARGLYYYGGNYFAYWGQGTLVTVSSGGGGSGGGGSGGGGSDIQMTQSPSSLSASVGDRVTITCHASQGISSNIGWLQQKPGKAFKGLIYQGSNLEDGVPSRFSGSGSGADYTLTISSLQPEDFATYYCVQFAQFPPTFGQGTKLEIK
B7: bispecific antibody LB1412 (bispecific antibody, human IgG4 S228P, kappa)
light: EIVLTQSPATLSLSPGERATLSCRASKGVSTSGYSYLHWYQQKPGQAPRLLIYLASYLESGVPARFSGSGSGTDFTLTISSLEPEDFAVYYCQHSRDLPLTFGGGTKVEIKRTVAAPSVFIFPPSDEQLKSGTASVVCLLNNFYPREAKVQWKVDNALQSGNSQESVTEQDSKDSTYSLSSTLTLSKADYEKHKVYACEVTHQGLSSPVTKSFNRGEC
heavy: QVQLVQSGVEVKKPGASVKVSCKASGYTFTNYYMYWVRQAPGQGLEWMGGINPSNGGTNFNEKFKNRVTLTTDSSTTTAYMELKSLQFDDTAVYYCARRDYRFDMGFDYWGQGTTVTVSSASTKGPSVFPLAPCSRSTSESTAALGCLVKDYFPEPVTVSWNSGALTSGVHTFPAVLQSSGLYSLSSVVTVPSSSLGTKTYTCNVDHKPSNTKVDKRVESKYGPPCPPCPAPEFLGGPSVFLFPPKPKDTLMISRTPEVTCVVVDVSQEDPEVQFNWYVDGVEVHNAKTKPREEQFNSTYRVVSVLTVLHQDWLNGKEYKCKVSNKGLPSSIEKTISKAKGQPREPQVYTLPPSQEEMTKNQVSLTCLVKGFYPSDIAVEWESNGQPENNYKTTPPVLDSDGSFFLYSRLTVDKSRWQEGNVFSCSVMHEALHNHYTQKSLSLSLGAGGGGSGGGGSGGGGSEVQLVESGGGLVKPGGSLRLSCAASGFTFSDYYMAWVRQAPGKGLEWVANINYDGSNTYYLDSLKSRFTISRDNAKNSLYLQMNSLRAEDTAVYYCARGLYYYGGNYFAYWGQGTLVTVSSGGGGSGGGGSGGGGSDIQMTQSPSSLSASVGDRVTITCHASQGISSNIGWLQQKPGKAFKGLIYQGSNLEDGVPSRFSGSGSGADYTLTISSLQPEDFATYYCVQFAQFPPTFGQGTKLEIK
B8: bispecific antibody LB243 (bispecific antibody, human IgG4 S228P, kappa)
light: DIQMTQSPSSLSASVGDRVTITCHASQGISSNIGWLQQKPGKAFKGLIYQGSNLEDGVPSRFSGSGSGADYTLTISSLQPEDFATYYCVQFAQFPPTFGQGTKLEIKGGGGSGGGGSGGGGSEVQLVESGGGLVKPGGSLRLSCAASGFTFSDYYMAWVRQAPGKGLEWVANINYDGSNTYYLDSLKSRFTISRDNAKNSLYLQMNSLRAEDTAVYYCARGLYYYGGNYFAYWGQGTLVTVSSGGGGSGGGGSGGGGSEIVLTQSPATLSLSPGERATLSCRASKGVSTSGYSYLHWYQQKPGQAPRLLIYLASYLESGVPARFSGSGSGTDFTLTISSLEPEDFAVYYCQHSRDLPLTFGGGTKVEIKRTVAAPSVFIFPPSDEQLKSGTASVVCLLNNFYPREAKVQWKVDNALQSGNSQESVTEQDSKDSTYSLSSTLTLSKADYEKHKVYACEVTHQGLSSPVTKSFNRGECGGGGSGGGGSGGGGSEVQLVESGGGLVKPGGSLRLSCAASGFTFSDYYMAWVRQAPGKGLEWVANINYDGSNTYYLDSLKSRFTISRDNAKNSLYLQMNSLRAEDTAVYYCARGLYYYGGNYFAYWGQGTLVTVSSGGGGSGGGGSGGGGSDIQMTQSPSSLSASVGDRVTITCHASQGISSNIGWLQQKPGKAFKGLIYQGSNLEDGVPSRFSGSGSGADYTLTISSLQPEDFATYYCVQFAQFPPTFGQGTKLEIK
heavy: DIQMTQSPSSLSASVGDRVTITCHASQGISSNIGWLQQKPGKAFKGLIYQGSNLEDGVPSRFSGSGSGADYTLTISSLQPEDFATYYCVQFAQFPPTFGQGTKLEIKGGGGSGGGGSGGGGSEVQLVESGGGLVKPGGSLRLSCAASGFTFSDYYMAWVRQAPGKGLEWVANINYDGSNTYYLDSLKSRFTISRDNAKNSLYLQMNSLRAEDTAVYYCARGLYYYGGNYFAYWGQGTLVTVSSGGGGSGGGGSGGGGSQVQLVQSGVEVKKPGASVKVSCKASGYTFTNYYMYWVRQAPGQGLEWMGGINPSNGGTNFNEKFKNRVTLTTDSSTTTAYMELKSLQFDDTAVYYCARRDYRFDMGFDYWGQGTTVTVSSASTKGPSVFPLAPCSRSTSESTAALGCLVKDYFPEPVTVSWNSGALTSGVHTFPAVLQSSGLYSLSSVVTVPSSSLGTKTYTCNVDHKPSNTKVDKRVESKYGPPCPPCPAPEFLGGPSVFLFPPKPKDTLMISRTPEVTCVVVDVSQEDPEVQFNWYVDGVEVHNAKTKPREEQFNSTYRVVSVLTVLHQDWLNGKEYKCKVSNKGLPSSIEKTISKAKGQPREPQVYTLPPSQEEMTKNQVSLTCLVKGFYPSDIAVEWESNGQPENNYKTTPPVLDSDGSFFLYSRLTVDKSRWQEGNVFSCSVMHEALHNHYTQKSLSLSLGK

What follows are binders tested against T1, human TIM-3 extracellular domain-human IgG1 Fc fusion protein (human, UniProt Q8TDQ0 22-199) (assay: ELISA, EC50 of bispecific over EC50 of the monoclonal control).
T1 construct: Made in house or bought (ACROBiosystems TM3-H5258); also called TIM-3-hFc; not shown: human IgG1 Fc

Row | Multiple of EC50 variation [ratio] | Binder
1 | 4.5 | B1
2 | 2.46 | B2
3 | 0.78 | B3
4 | 0.67 | B4
5 | 0.7 | B5
6 | 1.32 | B6
7 | 4.37 | B7
8 | 1.36 | B8

The binders below were run against T1, human TIM-3 extracellular domain-human … (assay: ELISA).
Method: Goat-anti-hFc (Jackson, 109-005-008) was diluted to a concentration of 1 μg/ml with PBS buffer (pH 7.4) and added to a 96-well microplate (Corning, CLS3590-100EA) at a volume of 50 μl/well, then incubated in an incubator at 37° C. for 2 hours (Or the antigen TIM-3 was directly used to coat the microplate with a concentration of 0.5 μg/ml, and then the antibody to be tested was directly added). After discarding the liquid, a blocking solution of 5% skimmed milk (skimmed milk powder purchased from Bright) diluted with PBS was added at 200 μl per well, and the microplate was incubated for 2.5 hours at 37° C. or overnight (16-18 hours) at 4° C. for blocking. The blocking solution was discarded, and the microplate was washed 5 times with PBST buffer (PBS with pH 7.4 containing 0.05% tween-20), then 50 μl/well of 0.5 μg/ml TIM-3-hFc (Example 1) was added and incubated for 2 hours in a 37° C. incubator. After incubation, the microplate was washed 6 times with PB ST. 50 μl/well of supernatant (containing testing antibody) or different concentrations of the antibody to be tested was added, and the microplate was incubated at 37° C. for 2 hours and washed 5 times with PBST. 50 μl/well of 1:2500 diluted HRP-labeled secondary antibody (Jackson Immuno Research, 115-035-003) was added to the microplate, incubating at 37° C. for 1 hour. After washing the microplate 5 times with PBST, 50 μl/well TMB chromogenic substrate (KPL, 52-00-03) was added to the microplate, followed by incubating at room temperature for 10-15 min.

Row | EC50 [pM] | Binder
9 | 3520 | B1
10 | 391 | B2
11 | 124 | B3
12 | 521 | B4
13 | 547 | B5
14 | 210 | B6
15 | 3420 | B7
16 | 216 | B8

What follows are binders tested against T2, human PD-1 extracellular domain protein expressed in Example 1 (tag not stated) (human, UniProt Q15116 25-170) (assay: ELISA, PD-1 coated).
T2 construct: extracellular domain; also called PD-1 protein; not shown: human IgG1 Fc or his tag
Method: (§1) PD-1 expressed in Example 1 was diluted to a concentration of 1 μg/ml with PBS buffer, pH 7.4, and added to a 96-well microplate (Corning, CLS3590-100EA) at 50 μl per well, thereby incubating in an incubator at 37° C. for 2 hours. After discarding the liquid, a blocking solution of 5% skimmed milk (Shanghai Shenggong Biological Engineering Co., Ltd., A600669-0250) diluted with PBS was added at 200 μl per well, followed by incubating at 37° C. for 3 hours or 4° C. overnight (16-18 hours)) for blocking. Subsequently, the blocking solution was discarded, and the microplate was washed 5 times with PBST buffer (pH 7.4 PBS containing 0.05% tween-20). […] Subsequently, the microplate was washed 5 times with PBST, then 50 μl/well of 1:2500 diluted HRP-labeled secondary antibody (Jackson Immuno Research, 115-035-003) was added, thereby incubating at 37° C. for 1 hour. After washing the microplate 5 times with PBST, 50 μl/well TMB chromogenic substrate (KPL, 52-00-03) was added, then incubated at room temperature for 5-10 min. Finally, 50 μl/well of 1M H₂SO₄ was added to stop the reaction. […] Go microplate reader (ThermoFisher, 51119200) was used to read the absorption value at 450 nm and the EC50 based on the OD value was calculated.

Row | EC50 [pM] | Binder
17 | 45 | B1
18 | 342 | B2
19 | 84 | B3
20 | 66 | B4
21 | 365 | B5
22 | 180 | B6
23 | 79 | B7
24 | 214 | B8

These binders were tested against T2, human PD-1 extracellular domain protein … (assay: ELISA, EC50 of bispecific over EC50 of the monoclonal control).
Method: After washing the microplate 5 times with PBST, 50 μl/well TMB chromogenic substrate (KPL, 52-00-03) was added to the microplate, followed by incubating at room temperature for 10-15 min.
as §1

Row | Multiple of EC50 variation [ratio] | Binder
25 | 0.47 | B1
26 | 1.3 | B2
27 | 0.32 | B3
28 | 0.69 | B4
29 | 3.8 | B5
30 | 0.68 | B6
31 | 0.82 | B7
32 | 0.81 | B8
